Data set [1] addresses T1, Trx-HIS6-hTERT(1-200) (hTEN) (human, UniProt O14746 1-200). Kind of data set: competition EMSA. Background: A gel shift assay detects complexes by their altered migration in electrophoresis.
Data set [2] has as its target T1, Trx-HIS6-hTERT(1-200) (hTEN). Kind of data set: competition EMSA. The source holds these as a separate data set.
Data set [3] has the same target. Description: competition EMSA. The source holds these as a separate data set.
In data set [4] the target is Trx-HIS6-hTERT(1-200) T116A/T117A/S118A (human, UniProt O14746 1-200, T116A;T117A;S118A). Description: EMSA.
For data set [5], the target named is Trx-HIS6-hTERT(1-200) Y18A (human, UniProt O14746 1-200, Y18A). Kind of data set: EMSA.
For data set [6], the target named is Trx-HIS6-hTERT(1-200) Q169A (human, UniProt O14746 1-200, Q169A). Kind of data set: EMSA.
The target of data set [7] is T1, Trx-HIS6-hTERT(1-200) (hTEN). Description: EMSA.
Data set [8] shares this target. Description: competition EMSA. The source holds these as a separate data set.
The target is the same in data set [9]. Kind of data set: competition EMSA. The source holds these as a separate data set.

From paper PMC2847226 come the findings set out here.

T1 sequence (O14746 1-200): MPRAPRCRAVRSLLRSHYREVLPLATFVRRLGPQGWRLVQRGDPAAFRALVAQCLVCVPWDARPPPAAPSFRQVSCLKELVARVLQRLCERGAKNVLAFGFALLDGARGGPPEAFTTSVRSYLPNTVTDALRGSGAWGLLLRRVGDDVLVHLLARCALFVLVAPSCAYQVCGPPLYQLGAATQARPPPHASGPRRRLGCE
Trx-HIS6-hTERT(1-200) T116A/T117A/S118A, sequence (O14746 1-200 T116A/T117A/S118A): as the sequence (O14746 1-200) above, with T116A, T117A, S118A counted along it
Trx-HIS6-hTERT(1-200) Y18A, sequence (O14746 1-200 Y18A): as the sequence (O14746 1-200) above, with Y18A counted along it
Trx-HIS6-hTERT(1-200) Q169A, sequence (O14746 1-200 Q169A): as the sequence (O14746 1-200) above, with Q169A counted along it

For GGGTTAGGGTTAGGG (ssDNA) [III], in [1], the binding result is reported as “binds”. As for GTTAGGGTTAGGG (ssDNA) [IV], in data set [2], the binding result was “binds”. For GGTTAGGGTTAGG (ssDNA) [VI / (GGTTAG)2G], the binding result in data set [3] is given as “binds”. For TTAGGGTTAGGGTTAGGG (ssDNA) [(TTAGGG)3 / I], the binding result in [4], in data set [5], in data set [6] and in [7] was “binds” in each case. TTAGGGTTAGCGTTAGGG (ssDNA) [I.C11]: the binding signal in [8] was 7 fold lower apparent affinity vs I (relative IC50). GGTTATTATTAGG (ssDNA) [VI.TA6]: the binding result in data set [9] is “binds”.

Consider GGGTTAGGGTTAGGGTTA (ssDNA) [II], for which, in data set [1], the binding result was “binds”.
